Consider 2 sequences from patent US20150368659.

For series [1], the system named is GBSS_T1 TALE-nuclease right monomer (synthetic construct (Xanthomonas TALE)?). The experiment in a line: cell_activity. Conditions: pair with left monomer; S. tuberosum protoplasts; 23% with TREX2 co-delivered; full target SEQ 5.
The test system of series [2] is GBSS_T1 TALE-nuclease left monomer (synthetic construct (Xanthomonas TALE)?). The series is described as follows: cell_activity. Conditions: pair with right monomer; S. tuberosum protoplasts; 23% with TREX2 co-delivered; full target SEQ 5.

In series [1], “AGCTTGATGGGCTCCAA (double strand) [GBSS_T1 right half-site]” displayed an activity (% NHEJ mutagenesis) of 11.
On to “TCTGACTCACAATGGTT (double strand) [GBSS_T1 left half-site]”, for which the activity (% NHEJ mutagenesis) in series [2] amounted to 11.
